In US20040048289A1, “Magnetic particle membrane-specific protein” (priority 2000, published 2004) one finds GTPase activity and GTP binding ability data, which are given here for two molecules.

Data set [1] in a line: GTPase activity (hydrolysis of 32P-labelled GTP, PEI cellulose TLC, bioimaging analyzer). It is filed as biochemical. The settings on record: immunoprecipitate on anti-HA antibody sepharose, one hour at 30° C., FIG. 5.
Data set [2] can be described thus: GTP binding ability (UV cross-linking with [γ-35S] GTP, SDS-PAGE, autoradiography). The note with it: [γ-35S] GTP 1 μM, one hour at 30° C., protein expressed in E. coli DH5α. As for the experimental part:
As Mms 16 of the present invention contained many GTP binding proteins and homologous sequences, the GTP binding ability of Mms 16 was investigated as follows. 1 μl of [γ-^35S] GTP (1 μM; 1,250 Ci/mmol) and cell homogenate were mixed in 20 μl binding buffer (50 mM Tris-HCl, 5 mM MgCl2, 1 mM EDTA, 0.3% Tween 20), and kept still for one hour at 30° C. Then, the obtained reaction mixture was kept still on ice for 20 minutes, and ultraviolet bridging was performed between GTP and protein by using an ultraviolet lamp. Subsequently, ½ amount of 3× sample buffer was added to the reaction solution to denature the protein, and sepharose beads were precipitated by centrifugation, supernatant was loaded onto 15% (w/v) acrylamide gel. After SDS-PAGE, the gel was dried and wrapped in Saran Wrap, and detection was conducted by autoradiography.
As a result, in addition to the protein that binds to [γ-^35S] […] GTP. In case where [α-^32P] GTP is used, [α-^32P] GTP binding type of GTPase is not observed because GDP also dissociates from GTPase when phosphoric acid in position γ dissociates from GTP binding type GTPase by hydrolysis activity. However, in case where [γ-^35S] GTP is used, it is possible to show the presence of GTPase because S is binding to 5′ of phosphoric acid in position γ, and therefore, hydrolysis is not caused by GTPase.

“Mms 16-HA fusion protein: Mms 16 fused at C-terminal with hemagglutinin epitope tag (YPYDVPDYA), expressed in E. coli from pTrc 16HA”: the GTPase activity result in data set [1] was “[α-^32P] GTP was hydrolyzed”.

B1: Mms 16: 16 kDa protein specific to a magnetic particle membrane of Magnetospirillum sp. AMB-1, amino acid sequence Seq. ID No. 2 (protein, listed as Magnetospirillum sp.)
chain: MAAKQTEQFFDFDVAKYLGDFKVPGVDVETIVANQRKNIEALTQANKLAFEGLQNVVKRQVEILRQTMDEVAQVSKDFAEPGSPQGKAAKQAEFAKDAFERALXNARELAEMIAKANSEAFDLLNKXFTQSLDEAREVFTKAGKK
modifications: X: residue not identified in the source
notes: 16 kDa protein specific to a magnetic particle membrane of Magnetospirillum sp; ID No. 2
Take B1: the GTPase activity result in data set [1] is given as “has GTPase activity”. Moreover, the GTP binding ability entry in data set [2] was “apparently bind to [γ-^35S] GTP”.
